Bridges are numbered along the chain shown (N, C = ends). Where no end group is shown, it is not given here.
Experiments:
[1] = target: alpha subunit of the human FcεRI receptor expressed on cells (human) (UniProt P12319); test: IgE inhibition assay (Table 9)
[2] = target: T1, alpha subunit of the human FcεRI receptor expressed on cells (human, UniProt P12319 26-257); test: inhibition of 125I-IgE binding to CHO cells expressing FcεRI alpha; freshly dissolved peptide (monomer)
T1 construct: whole, on cells; on rat basophil RBL-48 cells in the histamine release assay; also called CHO FcεRI+ cells; cell surface expressed FcεRI
T1 sequence (looked up): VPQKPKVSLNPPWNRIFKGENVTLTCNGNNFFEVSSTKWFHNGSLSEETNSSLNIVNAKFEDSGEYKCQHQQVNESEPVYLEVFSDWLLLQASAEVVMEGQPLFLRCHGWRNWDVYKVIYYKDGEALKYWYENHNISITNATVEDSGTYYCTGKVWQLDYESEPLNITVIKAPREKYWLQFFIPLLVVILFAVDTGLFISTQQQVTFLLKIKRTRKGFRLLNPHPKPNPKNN
Procedure: To determine the ability of peptides to inhibit IgE binding to FcεRI, a cell-based binding assay was used with radiolabeled IgE. Chinese hamster ovary cells expressing the alpha subunit of the human FcεRI receptor were cultured overnight in Falcon 96 well microtiter plates at a concentration of 5 ×10^4 cells per well. The following day the cells were rinsed three times with PBS and then once with F12/DMEM. Peptide stocks were reconstituted in 100 mM Hepes buffered water, pH 7.2, at a concentration of 5 mg/mL. Working concentrations of the peptide were diluted in assay buffer (see below). 75 uL of a desired concentration of peptide was added to the top row of a separate 96 well microtiter plate and serially diluted 1:3 in 50 uL of the assay buffer (F12/DMEM, 1% BSA, 0.05% NaN_3 and 0.025 mM Hepes pH 7.2). Starting concentrations ranged from 50–500 uM. Next, 50 uL of the diluted peptide was transferred to the 96 microtiter well plate containing a monolayer of CHO FcεRI+ cells. […] Cells were […]

[3] = target: T1, alpha subunit of the human FcεRI …; test: inhibition of 125I-IgE binding to CHO cells expressing FcεRI alpha; 7-10 days after dissolving, when the homodimer had formed
Procedure: (§1) To determine the ability of peptides to inhibit IgE binding to FcεRI, a cell-based binding assay was used with radiolabeled IgE. Chinese hamster ovary cells expressing the alpha subunit of the human FcεRI receptor were cultured overnight in Falcon 96 well microtiter plates at a concentration of 5 ×10^4 cells per well. The following day the cells were rinsed three times with PBS and then once with F12/DMEM. Peptide stocks were reconstituted in 100 mM Hepes buffered water, pH 7.2, at a concentration of 5 mg/mL. Working concentrations of the peptide were diluted in assay buffer (see below). 75 uL of a desired concentration of peptide was added to the top row of a separate 96 well microtiter plate and serially diluted 1:3 in 50 uL of the assay buffer (F12/DMEM, 1% BSA, 0.05% NaN_3 and 0.025 mM Hepes pH 7.2). Starting concentrations ranged from 50–500 uM. Next, 50 uL of the diluted peptide was transferred to the 96 microtiter well plate containing a monolayer of CHO FcεRI+ cells. […] Cells were
The size of each peptide was confirmed by mass spectrometry. […] This increase over time was not observed with the other peptides.

FcεRI-IgG [4] = target: T2, FcεRI-IgG (UniProt P12319 26-205); test: competitive phage ELISA; relative to g3c.42
T2 construct: extracellular domain; Produced from CHO cells (Genentech); also called FcεRI-Fc; bivalent fusion protein of the extracellular domain of FcεRI and the Fc domain of IgG; not shown: Fc domain of IgG
T2 sequence (looked up): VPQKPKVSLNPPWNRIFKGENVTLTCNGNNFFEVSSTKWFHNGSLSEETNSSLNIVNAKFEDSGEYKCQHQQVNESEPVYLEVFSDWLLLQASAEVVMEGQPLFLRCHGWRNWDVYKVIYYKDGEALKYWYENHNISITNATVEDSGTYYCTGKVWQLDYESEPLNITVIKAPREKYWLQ
Procedure: (§2) This oligonucleotide was annealed with a g3 single stranded DNA phagemid template. The mutagenesis reaction was transformed into XL-1 Blue *E. coli* and plated on LB-carb+ agar plates. Individual colonies were propagated in 5 mL of 2YT broth, tetracycline, carbenicillin and VCSM13 helper phage (Stratagene). Single stranded DNA was isolated from the purified phage particles and sequenced to confirm the insertion of the phage peptide sequence. 25 mL preparations of g3 phage clones were propagated overnight and purified by PEG precipitation. After resuspension of the phage pellet in 1.0 mL of PBS, it was serially diluted 1/3 and incubated with immobilized FcεRI-IgG 2 ug/mL in a 96 well Maxisorp microtiter plate for 1 hour at room temperature. The wells were washed 10× with PBST then incubated with 100 uL of anti M13 phage HRP as described above. An OD(492) value corresponding to less than 50% binding was selected and the purified phage clones were diluted to yield this normalized level of signal. […] The mixture was then transferred to 96 well microtiter dishes containing immobilized FcεRI-IgG. After a 1-hour incubation period, the plates were washed 10 times, incubated with anti M13-HRP conjugated antibody and developed with OPD as described above.
(§3) In addition, stepwise N-terminal and C-terminal truncations of the peptide sequence were constructed. All constructs were made by designing oligonucleotides corresponding to the desired substitution or truncation, with an additional 18 bp of DNA overlapping the peptide or g3 phage DNA sequence. The phage clones were propagated overnight following infection in XL-1 Blue *E. coli*. Purified phage preparations were titered and assayed for binding to immobilized receptor. FcεRI-IgG competition assays were performed as described above.

FcεRI-IgG [5] = target: T2, FcεRI-IgG; test: competitive phage ELISA: g3 peptide-phage on immobilized FcεRI-IgG, soluble FcεRI-IgG titrated
Procedure: as §2, §3

[6] = target: T1, alpha subunit of the human FcεRI …; test: cell-based or functional assay
[7] = target: T1, alpha subunit of the human FcεRI …; test: inhibition of 125I-IgE binding to CHO cells expressing human FcεRI alpha
Procedure: as §1
Alanine substitutions in IGE063 (SEQ ID NO:49) were used to assess sidechain contributions. The P9A (IGE070, SEQ ID NO:52) substitution had the largest impact with a >500× reduction in binding. […] Clearly the alanine substitutions at G8, P9, W10, G11 and W12 all had major impacts on binding FcεRI.

FcεRI-IgG [8] = target: T2, FcεRI-IgG; test: g3 phage ELISA on immobilized FcεRI-IgG
[9] = target: T3, extracellular domain of the alpha subunit of the human FcεRI (aa 1-176), produced in baculovirus infected … (human, UniProt P12319 26-201, N-linked carbohydrate (NAG on Asn21 seen in the crystal); derivatised with PDEA for thiol coupling to the chip in the biosensor assay); test: SPR biosensor (BIAcore), peptide over immobilized FcεRIα; Kd (apparent) calculated from kon and koff
T3 construct: range 1-176; Residues 1-176 are probably counted without the signal peptide; also called FcεRIα; soluble FcεRI
T3 sequence (looked up): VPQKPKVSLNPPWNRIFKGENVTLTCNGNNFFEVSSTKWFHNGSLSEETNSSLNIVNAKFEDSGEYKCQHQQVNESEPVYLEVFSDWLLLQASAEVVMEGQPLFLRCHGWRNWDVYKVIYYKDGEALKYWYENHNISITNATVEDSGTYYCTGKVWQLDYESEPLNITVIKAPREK
Procedure: *peptide is a dimer. SEQ ID NO: describes each monomer of the dimer. "ava" = amino-valeric acid Several peptides were also tested in a direct-binding assay using a surface plasmon resonance biosensor (Lofas & Johnsson, *J. Chem. Soc. Commun.* 21, 1526–1528 (1990)). FcεRIα, produced in baculovirus infected insect cells, was immobilized by the surface thiol method (BIAcore Methods Manual Supplement 5a, BIAcore, Inc., Piscataway, N.J.). Briefly, receptor was reacted with 2-(2-pyridinyldithio)ethaneamine hydrochloride (PDEA; Natake & Swaisgood, *J. Biochem.* 74, 77–86 (1973)), desalted into 10 mM sodium acetate (pH 4.8) and stored in aliquots at −80° C. Thawed PDEA-receptor was injected over carboxymethyl-dextran (B1 or CM5, BIAcore, Inc.) biosensor chips preactivated with N-ethyl-N'-(3-dimethylaminopropyl)-carbodiimide hydrochloride (EDC) and N-hydroxysuccinimide (NHS), cystamine, and DTT. […] Serial dilutions of peptide in running buffer (phosphate-buffered saline containing 0.05% Tween-20, 0.01% sodium azide) were injected over the immobilized receptor, and the net amount of peptide bound at steady-state was measured as the net change in response (RU) at a point just prior to termination of peptide injection, compared to a running-buffer baseline. […] In the case of IGE134 (SEQ ID NOS:), the value shown indicates the Kd calculated from the rate constants, $kon$ and $koff$. […]

[10] = target: T4, extracellular domain of the alpha subunit of the human FcεRI (aa 1-176), baculovirus-derived (human, UniProt P12319 26-201); test: competitive phage ELISA: peptide-phage with soluble FcεRI on FcεRI-coated plate
T4 construct: range 1-176; also called soluble FcεRI; baculovirus-derived FcεRI
T4 sequence (looked up): T3 sequence (looked up)
Procedure: Phage ELISA assays were carried out as described (Lowman, 1998, supra), using Nunc Maxisorp™ plates coated with a 2 μg/mL solution of baculovirus-derived FcεRI. Peptide-phage were pre-incubated for 5–10 min with serial dilutions of receptor, then added to the receptor-coated plate. After incubation for 1 h at room temperature, the plates were washed and an anti-phage HRP-conjugated antibody (Pharmacia) was added. After further incubation for 20 min, plates were again washed and developed using the substrate OPD (Sigma). Optical density at 492 nm was read and plotted as a function of FcεRI concentration to determine an $IC50$ of inhibition by each peptide-phage variant.

B1: IGE143 (peptide)
peptide: VQCPHFCYVGGHALCADVCYVGR
modifications: disulfide (positions not given here); also: two intramolecular disulfide bonds, pairing not given here
[1]
  fold loss in activity against its control peptide: > 100 fold

B2: IGE037 (peptide)
peptide: ALCPAVCYV-NH2
modifications: disulfide 3-7 (inferred); also: reshuffles over 3-12 days into disulfide-linked homodimer, held to be active form
notes: Made as a cyclic monomer
[2]
  IC50: ~300000 nM
[3]
  IC50: 25000 nM

B3: g3c.29 peptide-phage (peptide)
peptide: NLPRCTEGPWGWVCMAA
modifications: not fully specified (bridges); cysteine pairing not given here
notes: Monovalent g3p phage display; not shown: fused to M13 gene-3 protein (g3p) on phage
FcεRI-IgG [4]
  Relative (IC50) (fold weaker): 1 fold
FcεRI-IgG [5]
  IC50: 5 nM

B4: g3c.1 peptide-phage (peptide)
peptide: LPRCTEGPWGWVCMAAD
modifications: not fully specified; cysteine pairing not given here
notes: as for B3
FcεRI-IgG [4]
  Relative (IC50) (fold weaker): 1 fold
FcεRI-IgG [5]
  IC50: 3 nM

## NLPRCTEGPWGWVCM (disulfide 5-14 (inferred)) [peptide NLPRCTEGPWGWVCM (SEQ ID NO:27)]
[6]
  IC50 of inhibition of ragweed induced histamine release (RBL-48 cells, ragweed specific IgE): 13000 nM

## NLPRCTEGPWGWVCMAAD (disulfide 5-14 (inferred), also called optimized peptide) [synthetic peptide NLPRCTEGPWGWVCMAAD (SEQ ID NO:18)]
[6]
  IC50 of inhibition of ragweed induced histamine release (RBL-48 cells, ragweed specific IgE): 10000 nM
[7]
  IC50: 1000 nM
  fold improvement over the … (SEQ ID NO:1) peptide: > 160 fold
  fold improvement over the … (SEQ ID NO:8) peptide: 40 fold

B5: g3c.34 peptide-phage (peptide)
peptide: NLPRCTEGPWGWVCM
modifications: not fully specified; cysteine pairing not given here
notes: not shown: fused to M13 gene-3 protein (g3p) on phage
FcεRI-IgG [4]
  Relative (IC50) (fold weaker): 3 fold
FcεRI-IgG [5]
  IC50: 14.6 nM

B6: g3c.17 peptide-phage (peptide)
peptide: RCTEGPWGWVCMAAD
modifications: not fully specified; cysteine pairing not given here
notes: as for B3
FcεRI-IgG [8]
  binding result: no binding

## VQCPHFCYELDYELCPDVCYV-NH2 (disulfide 7-15, 3-19, also called peptide) [IGE134]
[9]
  Kd: 32 nM

B7: IGE120-phage (IVCPRLCYVGGKALCPDVCYV displayed as a fusion to g3p of bacteriophage M13) (peptide)
peptide: IVCPRLCYVGGKALCPDVCYVGGGSGGGGSGSGDY
notes: not shown: g3p of bacteriophage M13, continuing after residue 257 of the mature protein
[10]
  Relative IC50: 1 fold, relative to IGE120-phage

B8: g3c.21 peptide-phage (peptide)
peptide: CTEGPWGWVCMAAD
modifications: not fully specified; cysteine pairing not given here
notes: as for B3
FcεRI-IgG [8]
  binding result: no binding

B9: g3c.31 peptide-phage (peptide)
peptide: NLPRCTEGPWGWVCMA
modifications: not fully specified (bridges); cysteine pairing not given here
notes: as for B3
FcεRI-IgG [4]
  Relative (IC50) (fold weaker): 1 fold
FcεRI-IgG [5]
  IC50: 6.1 nM

## ALCPAVCYV-NH2 (also: antiparallel disulfide-linked homodimer, interchain C3-C7' and C7-C3') [IGE089]
[6]
  IC50 of inhibition of ragweed induced histamine release (RBL-48 cells, 0.1 nM ragweed specific human IgE): 8000 nM
